Measured values: paper PMC6506533, “Initial state of DNA-Dye complex sets the stage for protein induced fluorescence modulation”

Biological target: FEN1 (human, UniProt P39748 1-380)
Assay: fluorescence anisotropy; rotational correlation time decreases on binding; RPA reaction buffer with 50 mM KCl or FEN1 reaction buffer (full composition not in material); steady-state measurements at room temperature; proteins in excess over Kd (Kd stated only as low nM)
Settings: protein: recombinant; tags: none left (His6-SUMO cleaved); label: 5' flap tip pCy3; nicked double flap: 3 strands, 5' flap 4 nt, 3' flap 1 nt

FEN1, sequence (P39748 whole entry): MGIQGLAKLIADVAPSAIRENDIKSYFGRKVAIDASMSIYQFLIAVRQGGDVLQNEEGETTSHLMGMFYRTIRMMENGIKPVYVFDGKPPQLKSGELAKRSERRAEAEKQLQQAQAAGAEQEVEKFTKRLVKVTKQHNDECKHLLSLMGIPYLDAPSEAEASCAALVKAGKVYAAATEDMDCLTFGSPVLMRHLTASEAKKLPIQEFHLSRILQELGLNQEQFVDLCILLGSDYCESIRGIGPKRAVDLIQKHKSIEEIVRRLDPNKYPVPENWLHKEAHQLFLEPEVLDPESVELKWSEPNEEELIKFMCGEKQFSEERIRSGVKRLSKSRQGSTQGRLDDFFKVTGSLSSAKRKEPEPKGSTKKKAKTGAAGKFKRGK

B1: DF-4,1 pCy3 (structured_DNA)
DNA 1: GATGACGAGCAGTCCTAACTGGAAATCTAGCTCTGTGGAG
DNA 2: CTCCACAGAGCTAGATTTCCC
DNA 3: TTTAAGTTAGGACTGCTCGTCATC
B1: binds.
